Data on one molecule can be found in US20210270842A1 (DYAX, published 2021).

Assay [1] concerns the target T1, cleaved high molecular weight kininogen (HMWK) (human, UniProt P01042 19-380; P01042 390-644).
T1 construct: also called cleaved HMWK; 2-chain HMWK
T1 sequence 1: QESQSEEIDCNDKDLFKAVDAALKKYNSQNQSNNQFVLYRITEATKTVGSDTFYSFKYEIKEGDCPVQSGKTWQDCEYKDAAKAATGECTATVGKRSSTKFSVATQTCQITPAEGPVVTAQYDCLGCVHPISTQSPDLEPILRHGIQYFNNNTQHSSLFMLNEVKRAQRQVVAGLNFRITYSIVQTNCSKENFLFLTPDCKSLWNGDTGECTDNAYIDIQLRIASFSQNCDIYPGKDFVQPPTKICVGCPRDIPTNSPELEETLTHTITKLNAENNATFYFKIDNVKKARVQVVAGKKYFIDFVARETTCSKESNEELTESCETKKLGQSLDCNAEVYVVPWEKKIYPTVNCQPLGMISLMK
T1 sequence 2: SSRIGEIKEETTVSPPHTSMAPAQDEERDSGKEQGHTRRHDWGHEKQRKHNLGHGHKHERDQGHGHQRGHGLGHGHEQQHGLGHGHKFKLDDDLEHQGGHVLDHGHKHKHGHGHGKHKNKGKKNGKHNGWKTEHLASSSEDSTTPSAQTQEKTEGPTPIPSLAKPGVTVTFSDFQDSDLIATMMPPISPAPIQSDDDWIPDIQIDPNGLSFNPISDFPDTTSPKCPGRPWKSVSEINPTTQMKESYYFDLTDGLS
The assay can be described thus: ELISA on coated M004-B04, 2-chain HMWK (in deficient plasma, diluted) titrated, no peptide (control); value = C, midpoint of the printed 4-P fit. How it is done:
Following plate washing with PBST, a mixture of 2 mouse monoclonal antibodies (11H05 and 13B12) at 1 μg/mL in 2-chain HMWK assay buffer were added for 1 hour at room temperature. Unbound detection antibodies were washed and a 1:2000 dilution of goat anti-mouse secondary antibody conjugated to horseradish peroxidase (HRP) was added. The assay containing the secondary antibody was incubated for 1 hour at room temperature, and unbound secondary antibody was removed by washing with 2-chain HMWK assay buffer. Signal was detected by the addition of 3,3′,5,5′-tetramethylbenzidine (TMB), an HRP substrate. The reaction was stopped with phosphoric acid. Hydrolysis of a TMB substrate was detected using a microplate reader at 450 nm-630 nm (FIG. 3). […] Using these immunoassay conditions, specifically binding to cleaved HMWK was detected.
To perform the assay, the kininogen peptides were diluted to 250 μg/mL and allowed to preincubate on assay plate. Then, purified 2-chain HMWK in deficient human plasma was diluted 160 and then added to plate.

The target in assay [2] is T1, cleaved high molecular weight kininogen …. Put plainly: sandwich ELISA with coated Fab; value = C, midpoint of the printed 4-P fit; 2-chain HMWK spiked into HMWK-deficient plasma, analysed in 10% plasma. The source says:
Purified cleaved HMWK was spiked into SBT assay buffer (open circles), SBT assay buffer and analyzed in the presence of 10% plasma (squares), or HMWK-deficient plasma and analyzed in the presence of 10% plasma (triangles). Purified cleaved HMWK was also spiked into assay buffer and analyzed in the presence of 2.5% plasma (diamonds) or HMWK deficient plasma and analyzed in the presence of 2.5% plasma (closed circles). The y-axis presents the ELISA signal in absorbance units, and the x-axis presents the concentration of kininogen in μg/mL.
(§1) The following day, the plate was washed and then blocked with 2% BSA (Protease/IgG free) in PBS buffer. Following a wash, samples containing cleaved HMWK in 0.1% BSA buffer in PBS with 0.05% Tween-20 (2-Chain HMWK assay buffer). Purified protein standards (e.g., 2-chain HMWK, intact HMWK or LMWK) were spiked into HMWK-deficient plasma and diluted 1:320 in 2-chain HMWK assay buffer. Following plate washing with PBST, a mixture of 2 mouse monoclonal antibodies (11H05 and 13B12) at 1 μg/mL in 2-chain HMWK assay buffer were added for 1 hour at room temperature. […] Signal was detected by the addition of 3,3′,5,5′-tetramethylbenzidine (TMB), an HRP substrate. […] Hydrolysis of a TMB substrate was detected using a microplate reader at 450 nm-630 nm (FIG. 3). […] Using these immunoassay conditions, specifically binding to cleaved HMWK was detected.

Assay [3] addresses T2, intact high molecular weight kininogen (HMWK) (Homo sapiens, UniProt P01042 19-644).
T2 construct: also called intact HMWK; 1-chain HMWK
T2 sequence: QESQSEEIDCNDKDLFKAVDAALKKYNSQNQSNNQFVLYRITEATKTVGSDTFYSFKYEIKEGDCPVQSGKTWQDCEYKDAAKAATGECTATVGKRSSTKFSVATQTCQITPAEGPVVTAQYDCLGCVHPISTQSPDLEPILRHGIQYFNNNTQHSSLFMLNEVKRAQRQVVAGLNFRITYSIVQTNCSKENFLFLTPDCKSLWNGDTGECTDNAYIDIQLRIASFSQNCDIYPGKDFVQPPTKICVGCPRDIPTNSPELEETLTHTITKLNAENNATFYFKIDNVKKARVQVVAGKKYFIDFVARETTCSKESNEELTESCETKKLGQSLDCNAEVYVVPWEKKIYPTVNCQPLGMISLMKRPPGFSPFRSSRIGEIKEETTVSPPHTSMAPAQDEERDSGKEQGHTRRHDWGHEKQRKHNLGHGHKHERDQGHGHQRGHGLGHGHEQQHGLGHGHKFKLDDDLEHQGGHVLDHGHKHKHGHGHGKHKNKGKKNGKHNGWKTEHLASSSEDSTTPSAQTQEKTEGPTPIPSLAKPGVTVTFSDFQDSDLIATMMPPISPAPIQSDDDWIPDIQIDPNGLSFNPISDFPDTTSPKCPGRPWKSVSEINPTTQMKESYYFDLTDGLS
Put plainly: sandwich ELISA: Fab coated on 96-well plate, kininogen titrated, detection 11H05 + 13B12 and goat anti-mouse-HRP; value = C, midpoint of the printed 4-P fit; 1-chain HMWK in SBT buffer; weak signal: only two points drawn (about 0.2 at 200, about 0.5 at 2000), fitted top 0.627 against 2.85 for 2-chain HMWK.
Excerpt: Purified cleaved HMWK was spiked into SBT assay buffer (circles) or HMWK-deficient plasma (squares). Purified intact HMWK was spiked into SBT assay buffer (triangles). Purified LMWK was spiked into SBT assay buffer (diamonds). The y-axis presents the ELISA signal in absorbance units, and the x-axis presents the concentration of kininogen in μg/mL.
as §1, with “temperature. Unbound detection antibodies were washed and a 1:2000 dilution of goat anti-mouse secondary antibody conjugated to horseradish peroxidase (HRP) was added.” for “temperature.”
Background: ELISA stands for enzyme-linked immunosorbent assay.

B1: 559B-M0004-B04 (Fab, V domains shown)
VH: EVQLLESGGGLVQPGGSLRLSCAASGFTFSFYVMVWVRQAPGKGLEWVSGISPSGGNTAYADSVKGRFTISRDNSKNTLYLQMNSLRAEDTAVYYCARKLFYYDDTKGYFDFWGQGTLVTVSS
VL: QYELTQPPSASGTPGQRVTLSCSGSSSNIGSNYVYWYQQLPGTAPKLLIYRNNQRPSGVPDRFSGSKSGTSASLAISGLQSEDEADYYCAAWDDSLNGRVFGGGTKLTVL
notes: also called M004-B04
What is called EC50 is the concentration at which the effect is half-maximal. Consider B1, for which the EC50 in assay [1] came to 0.0123 µg/mL; in assay [2], 165 µg/mL; in assay [3] it was 1110 µg/mL.
